Common to all, as to assay: fluorescence anisotropy against solution viscosity
Assay [1] addresses Rosmarinus.
The target in assay [2] is Rosmarinus. This is another data set of the same source.
The target of assay [3] is Rosmarinus. This is another data set of the same source.
Assay [4] addresses amFP486/K68M (UniProt Q9U6Y6).
Assay [5] has as its target eqFP486.

From article PMC5474692 come the findings set out here.

Where two headings read alike, the source gives them in different places.

Turning to Rosmarinus, the stoichiometry N in assay [1] turned out to be 4; in assay [2], 4; in assay [3] it was 2.
In turn, “amFP486/K68M (from UniProt Q9U6Y6 1-229) (natural protein)” registered a stoichiometry N in assay [4] of 4.
eqFP486 (natural protein): the stoichiometry N in assay [5] amounted to 2.
